The values below come from US20250154231A1 (RQBIO COVID, published 2025).

Like-named read-outs stand apart in the source and are kept apart here.

The target of test [1] is T1, Omicron BA.2 RBD (SARS-CoV-2, UniProt P0DTC2 333-528).
The target of test [2] is T2, Omicron BA.2.12.1 RBD (SARS-CoV-2, UniProt P0DTC2 333-528).
The target of test [3] is T1, Omicron BA.2 RBD. The source holds these as a separate data set.
In test [4] the target is T1, Omicron BA.2 RBD. The source holds these as a separate data set.
For test [5], the target named is T3, Omicron BA.1 RBD (SARS-CoV-2, UniProt P0DTC2 333-528).
T3 construct: domain: RBD
The test can be described thus: ELISA. A general note: ELISA stands for enzyme-linked immunosorbent assay.

Test [6] deals with T1, Omicron BA.2 RBD. In words: SPR, single injection of RBD over the IgG. (In general: SPR reads the build-up and loss of mass on a sensor chip optically.)
The target of test [7] is T1, Omicron BA.2 RBD. The source holds these as a separate data set.
Test [8] concerns the target T1, Omicron BA.2 RBD. The source holds these as a separate data set.
Test [9] deals with T2, Omicron BA.2.12.1 RBD. In words: crystal structure of the ternary complex, 2.38 A.
Test [10] concerns the target T1, Omicron BA.2 RBD. The source holds these as a separate data set.
Test [11] deals with T3, Omicron BA.1 RBD. In words: crystal structure of the complex.
Test [12] has as its target T2, Omicron BA.2.12.1 RBD. This is another data set of the same source.
For test [13], the target named is T1, Omicron BA.2 RBD. This is another data set of the same source.

B1: Omi-32 Fab (Fab, V domains shown)
VH: EVQLVESGGGVVQPGRSLRLSCAASGFTFSNYGMHWVRQAPGKGLEWVAVYWYDGGNKFYADSVKGRFTISRDNSKNTLYLQMNSLRVEDTAVYYCARDTAPPDYWGQGTLVTVSS
VL: AIRMTQSPGTLSLSPGERATLSCRASQSISSSFLAWYQQKPGQAPRLLIYGASSRATGIPDRFSGSGSGTDFTLTISRLEPEDFAVYYCQQYGTSPRLTFGGGTKVDIK
In the case of B1, in [1], the affinity, expressed as Kd, was 5.9 nM; the T1/2 amounted to 71 min; the koff is 0.00016 s⁻¹; the kon was determined as 27000 M⁻¹ s⁻¹.

B2: Omi31 (antibody, V domains shown)
VH: EVQLVQSGAEVKKPGSSVKVSCKASGGTFSSYGISWVRQAPGLGLEWMGGVIPILSAKHYAQRFQGRVTITADKSTGTAYMELSSLRSEDTAVYYCARDILHHDDLWGRFYYDGMDVWGQGTTVTVSS
VL: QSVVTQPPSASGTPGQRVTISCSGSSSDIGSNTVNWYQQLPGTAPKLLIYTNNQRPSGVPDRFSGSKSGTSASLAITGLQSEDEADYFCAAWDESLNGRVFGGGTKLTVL
B2: in test [2], binding was put at a Kd of 4.1 nM, the T1/2 is 0.733 min, the koff turned out to be 0.016 s⁻¹ and the kon was found to be 3.8e+06 M⁻¹ s⁻¹. In test [3], this molecule yielded a Kd of 0.0032 nM, a T1/2 of 366 min, a koff of 3.1e-05 s⁻¹ and a kon of 9.8e+06 M⁻¹ s⁻¹.

B3: Omi-42 Fab (Fab, V domains shown)
VH: EVQLLETGGGLVQPGRSLRLSCAASGFPFDDYAIHWVRLAPGKGLEWVSSISWDSGSIGYADSVKGRFTISRDNAKNSLYLQMNSLRAEDTALYYCAKGAFPGYSSGWYYGLDVWGQGATVTVSS
VL: QSVVTQPPSASGSLGQSVTISCTGTSSDVGGYNYVSWYQQHPGKAPKLMIFEVSKRPSGVPDRFSGSKSGNTASLTVSGLQAEDEADYYCSSYAGNKGVFGGGTKLTVL
Take B3: in test [4], the Kd was found to be 0.99 nM, the T1/2 came out at 131 min, the koff came to 8.8e-05 s⁻¹ and the on-rate (kon) came to 89000 M⁻¹ s⁻¹.

B4: Omi36 (antibody, V domains shown)
VH: EVQLVESGGGVVQPGGSLRLSCAASGIIVSANYMTWVRQAPGKGLEWVSVIYPGGSTFYADSVKGRFTISRDNSKNTLYLQMNSLRVEDSAVYYCARDLELAGFNDYWGQGTLVTVSS
VL: DIVMTQSPGTLSLSPGERATLSCRTSQSVSSNYLAWYQQKPGQAPRLLIYGASSRATGIPDRFSGSGSGTDFTLTISRLEPEDFAVYYCQQFGSSPRYTFGQGTKVEIK
As for B4, the binding result in test [5] and in test [6] was “binds” in each case.

B5: Omi03 (antibody, V domains shown)
VH: EVQLVESGGGLIQPGGSLRLSCAASEIIVSRNYMSWVRQAPGKGLEWVSVIYSGGSTFYADSVKGRFTISRDNSKNTLYLQMNSLRAEDTAVYYCARDLDVVGGTDYWGQGTLVTVSS
VL: not shown
In test [7], B5 displayed a Kd of 4.4 nM and a T1/2 of 2.9 min.

B6: Fab Beta-54 (Fab, V domains shown)
VH: QVQLQESGPGLVKPSETLSLTCTVFGGSITSSNHYWVWIRQPPGKGLEWIGSMYYSGSTAYNPSLTNRVTISVDTSKNQFSLKLSSVTAADTAVYYCARQIGPKRPSQVADWFDPWGQGTLVTVSS
VL: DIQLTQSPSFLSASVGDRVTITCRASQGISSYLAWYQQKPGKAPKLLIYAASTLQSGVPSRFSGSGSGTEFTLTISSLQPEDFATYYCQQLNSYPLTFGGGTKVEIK
B6: in test [8], the affinity, expressed as Kd, was 44 nM; the T1/2 was 2.3 min; the koff came to 0.005 s⁻¹; the kon came out at 110000 M⁻¹ s⁻¹.

B7: Beta-27 Fab (Fab, V domains shown)
VH: EVQLLESGGGLVQPGGSLRLSCAASGLTVRSNYMNWVRQAPGKGLEWVSLIYSGGSTFYADSVKGRFTISRHDSKNTLYLQMNSLRAEDTAVYYCARDLVVYGMDVWGQGTTVTVSS
VL: DIQMTQSPGTLSLSPGERATLSCRASQSVSSSSLAWYQQKHGQAPRLLIYGTSSRATGIPDRFSGSGSGTDFTLTISGLEPEDFAVYYCQQYGSSPLFGGGTKVEIK
Consider B7, for which the binding result in test [9] is recorded as “binds”.

B8: Omi20 (antibody, V domains shown)
VH: EVQLVESGGGLVQPGGSLRLSCEASEITVSSNYMNWVRQAPGKGLEWVSVLFAGGTTYYADSVKGRFTISRDNSKNTLYLQMNTLRIEDTAIYYCARDLVAYGVDVWGQGTTVTVSS
VL: AIQMTQSPSFLSASVGDRVTITCRASQGISGDLAWYQQKPGKAPKLLIYAASTLQSGVPSRFSGSGSGTEFTLTISSLQPEDFATYYCQHLNSYPLTFGGGTKVEIK
In [10], B8 gave a Kd of 2.4 nM, a T1/2 of 5.6 min, a koff of 0.0021 s⁻¹ and a kon of 870000 M⁻¹ s⁻¹.

B9: Omi-9 Fab (Fab, V domains shown)
VH: QVQLVESGGGVVQPGRSLRLSCAASGFTFRTYAVHWVRQAPGKGPEWVAVISYDGSNKYYADSVKGRFTLSRDTSKNTLYLQMNSLRAEDTAVYYCASRGDTVTTGDAFDIWGQGTMVTVSS
VL: SYELTQPPSVSVSPGQTARITCSGDALPKQYTYWYQQKPGQPPVLVIYKDSERPSGIPERFSGSSSGTTVTLTISGVQAEDEADYYCQSTDSSATYPGNVVFGGGTKLTVL
On to B9, for which the binding result in test [11] was “binds”.

B10: Omi06 (antibody, V domains shown)
VH: EVQLLESGPGLVKPSETLSLTCTVSGGSISRYSWSWIRQPAGRGLEWIGRMYSSGGTNYNPSLESRVTMSLDTSKKQFSLKLSSVTAADTAVYYCAAASIDQVWGTYRDAFDIWGQGTMVTVSS
VL: AIRMTQSPSSLAASVGDRVTISCRAGQSISSFLHWYQQKVGKAPKLLIYDASSLQSGVPSRFSGSGSGTDFTLTISSLQPEDFAAYYCQQSYENPLTFGGGTKVDIK
For B10, in test [12], the Kd was determined as 19 nM. In test [13], this molecule came in with a Kd of 1.3 nM, a T1/2 of 0.983 min, a koff of 0.012 s⁻¹ and an on-rate constant (kon) of 9e+06 M⁻¹ s⁻¹.

Broadly, the Kd is a measure of binding affinity in units of concentration. The low end stands for tighter binding, the high end for weaker binding. Broadly, the koff is a measure of how fast the partners let go of each other. For orientation: kon means the rate constant with which the complex forms.
